Results on ten molecules are retold here after article PMC3817407.

Values joined by “and” are separate entries in the source; they are usually repeats but may differ in a detail not shown here. Equal entries are not always repeated.

One assay addresses T1, ECF31_34.
T1 chain: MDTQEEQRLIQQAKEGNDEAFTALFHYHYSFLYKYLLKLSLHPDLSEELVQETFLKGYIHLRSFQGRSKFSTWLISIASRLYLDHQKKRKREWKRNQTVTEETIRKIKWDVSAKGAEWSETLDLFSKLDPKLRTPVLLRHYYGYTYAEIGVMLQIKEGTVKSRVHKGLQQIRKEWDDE

The next assay deals with T2, ECF17_1458.
T2 chain: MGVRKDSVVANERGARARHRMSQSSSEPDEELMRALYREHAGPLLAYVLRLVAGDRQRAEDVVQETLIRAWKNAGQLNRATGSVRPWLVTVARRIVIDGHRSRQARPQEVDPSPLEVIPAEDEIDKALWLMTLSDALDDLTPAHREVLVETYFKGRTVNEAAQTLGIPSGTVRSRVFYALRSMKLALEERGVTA

Another assay concerns the target T3, ECF35_3582.
T3 chain: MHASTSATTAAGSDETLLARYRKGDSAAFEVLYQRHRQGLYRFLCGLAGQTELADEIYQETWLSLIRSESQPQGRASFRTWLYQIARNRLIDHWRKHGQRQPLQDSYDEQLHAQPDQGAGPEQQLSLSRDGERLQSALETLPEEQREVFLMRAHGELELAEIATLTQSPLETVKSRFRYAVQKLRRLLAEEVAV

A further assay concerns the target T4, ECF25_1643.
T4 chain: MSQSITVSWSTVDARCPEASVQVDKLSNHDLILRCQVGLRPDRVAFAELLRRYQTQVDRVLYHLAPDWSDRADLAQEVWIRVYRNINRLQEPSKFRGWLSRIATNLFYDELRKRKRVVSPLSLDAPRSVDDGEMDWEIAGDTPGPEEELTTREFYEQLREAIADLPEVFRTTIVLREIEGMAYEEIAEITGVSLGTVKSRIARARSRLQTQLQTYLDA

The next assay concerns the target T5, ECF20_992.
T5 chain: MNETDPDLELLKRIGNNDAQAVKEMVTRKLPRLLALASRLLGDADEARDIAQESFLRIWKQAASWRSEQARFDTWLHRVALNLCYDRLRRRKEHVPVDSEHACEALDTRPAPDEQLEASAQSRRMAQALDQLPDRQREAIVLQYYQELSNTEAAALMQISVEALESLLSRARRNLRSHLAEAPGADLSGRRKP

For the next assay, the target named is T6, ECF11_3726.
T6 chain: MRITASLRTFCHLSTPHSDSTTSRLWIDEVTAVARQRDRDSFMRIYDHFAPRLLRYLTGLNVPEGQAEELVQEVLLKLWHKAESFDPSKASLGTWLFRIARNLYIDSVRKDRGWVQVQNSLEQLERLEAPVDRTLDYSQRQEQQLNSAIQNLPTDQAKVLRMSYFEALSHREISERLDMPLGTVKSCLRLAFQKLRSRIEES

B1: AS31_34 (protein)
chain: MNKEKLSDHLKSEWKKIDQTANPSIPNQKELLHQLSQMKAEYRKKLLQEIILFVFCALMVVSAAILAFTQAPAVFIVLQVCVLAVLPILIAAEKKRHLGECEVKRG
B1: the fold repression was 22.7 in the assay with ECF31_34; 4.02 in the assay with ECF17_1458; 2.57 in the assay with ECF27_1331; 2.06 with ECF35_3582; 2.25 and 1.91 in the assay with ECF25_1643; 2.35 in the assay with ECF20_992. Moreover, in the assay with ECF11_3726, the fold repression turned out to be 5.86.

B2: AS25_1645 (protein)
chain: MNESFSQRQTDGDRRRGGDLEMKKNHTSHQHHTDSETPMGHNFEQFQRLSAYFDGEATPAERKEIQHLLDTDPQVKQQYQQLRQLKQALQLLPIPTSISAQYLGQRVLARLRRSQLRTLSLWGSGAIAALFVAGVMGQMPRLNFDRFAKNDPDQQPTAALVETSPQGEEALVVALNRPVLQIPKLATTESP
Turning to B2, the fold repression in the assay with ECF31_34 was 5.66; in the assay with ECF17_1458, 7.18; in the assay with ECF27_1331, 11.2; in the assay with ECF35_3582, 2.98; with ECF25_1643, 19.5 and 19.2; in the assay with ECF20_992 it was 5.73. For the same molecule, the fold repression with ECF11_3726 was found to be 13.1.

B3: AS22_1147 (protein)
chain: MELDDIAVAWRSLEQRLDQHAALAGQVLGDLRSHAARAHLRPLWLSQSAQLLCAIALSGLVAHSWLAFPEQAAAIVGGVLLQIWCVALAASAARQLWLLSQLDFARPLLQTQRALAQLRRWRTRVAPWLGVAFWVLWVAVADAAWRALTGRSLPYAWLLCNLLVGVLGGIGTWLGYRRLQRSGHPWLERLDTVHAGRSVARTETLLEQIARFQRE
B3: the fold repression is 2.31 with ECF31_34; 2.2 with ECF17_1458; 3.07 with ECF27_1331; 1.94 with ECF35_3582; 2.46 and 1.99 with ECF25_1643; 2.35 in the assay with ECF20_992. The fold repression with ECF11_3726 worked out at 3.72.

B4: AS33_375 (protein)
chain: MMALSKKMLEQEPSEIELLLPWHAAGTLNARDARRVEDALARDPELAKQYAAIRGEYEETIHLNESLGAPSARAMQKLFGAIDAEPARETGSLPLSARIATFFASLSPRTLAWSASLGAVALVLQAGIIGAVLMKTQPTTFQTASLSTSAPITRELGAAVAPARALVRFTPEARVADITALLDSYQASIIGDAKGGMFRLQFDKAMSQDELASLLGRMQREKFVNLAVAAP
Take B4: the fold repression with ECF31_34 is 9.28; in the assay with ECF17_1458, 11.3; in the assay with ECF27_1331, 11.4; with ECF35_3582, 5.86; with ECF25_1643, 5.97 and 4.93; with ECF20_992, 20.7. Further, in the assay with ECF11_3726, the fold repression was 34.4.

B5: AS22_4450 (protein)
chain: MELDDMKHAWQTLEQRLDQQAAQTGQLLGVVHEETVRSSLRPLWVAQTAQLLCALALAIVSARSWIPHTDQPVAVIGGVLLQAWCMALAISAMVQLQLLTQFNVAGPLLRTQHALARLRRWRTRVAPWLGVAFWVLWIAVADALWRALTGQTLPTDWLVLNLLVGVAGGIGTWLGFRRLQRAQHPWLERIDRAHAGTGVIRAERMLEEIARFQRD
Take B5: the fold repression with ECF31_34 was 1.48; with ECF17_1458, 1.23; with ECF27_1331, 1.37; with ECF35_3582 it was 1.35; in the assay with ECF25_1643 it was 1.63 and 1.34; with ECF20_992, 1.54. The molecule also returned a fold repression with ECF11_3726 of 1.93.

B6: AS33_423 (protein)
chain: MMAMSNTMPDPREPGDVEALLPWYAAGTLNARDARRVADALDRDPALARQYAVILEEYASTIELNESLGAPSSRAMQKLFAAIDAEPARAPGAGQGLGARFAGFFAGLSPKALAWSASVAGLALLLQAGLIGALLTWPHAAPVQTAAYQPQREVARAPASSPAPATVSPPAAAMADRAADAGKSTPPMVMAERSGGPVVRSLAPQSGPRVLVKFAPEARASEIAALLDQYNAVVVDSSRGGLFRLQFGTQSLSKQDQETLIGRLQKEPVVSVVLSAP
In the case of B6, the fold repression with ECF31_34 was 8.35; with ECF17_1458, 8.41; with ECF27_1331, 8.68; in the assay with ECF35_3582, 6.37; in the assay with ECF25_1643, 3.19 and 2.96; in the assay with ECF20_992, 14.2. Also, the fold repression with ECF11_3726 was 29.3.

B7: AS27_1331 (protein)
chain: MSAADKDPDKHSADADPPLTVELLADLQAGLLDDATAARIRSRVRSDPQAQQILRALNRVRRDVAAMGADPAWGPAARPAVVDSISAALRSARPNSSPGAAHAARPHVHPVRMIAGAAGLCAVATAIGVGAVVDAPPPAPSAPTTAQHITVSKPAPVIPLSRPQVLDLLHHTPDYGPPGGPLGDPSRRTSCLSGLGYPASTPVLGAQPIDIDARPAVLLVIPADTPDKLAVFAVAPHCSAADTGLLASTVVPRA
For the molecule B7, the fold repression in the assay with ECF31_34 was 5.7; in the assay with ECF17_1458, 2.79; with ECF27_1331, 3.32; in the assay with ECF35_3582, 5.79; with ECF25_1643, 2.81 and 2.4; with ECF20_992, 6.81. Moreover, in the assay with ECF11_3726, the fold repression is 5.02.

B8: AS25_1643_cl43 (protein)
chain: MTTDSNFNDPCRRQFSRDLPQKMARHTNEATGAMDMVKRDRFELLSAYLGGEVTAAERRQVEDWPANDVAVQRLYSRLLKLRQGIRTMPIPTAQQSPETTAEQVFAKVNRRSRLAWKLGGAAVAACVIGAVTNWLPGRQTGIPQLAQQPQEQPTQAVTTPDALPMIALNNPVIEIPKAAVASPTKFIQPQPQLGEIPPDIN
For the molecule B8, the fold repression with ECF31_34 was 1.58; with ECF17_1458, 2.2; with ECF27_1331 it was 1.96; with ECF35_3582, 1.57; with ECF25_1643 it was 4.28 and 3.89; with ECF20_992, 1.99. Further, the fold repression in the assay with ECF11_3726 came out at 4.29.

B9: AS27_4265 (protein)
chain: MTGHPDVAEIADLAEGLLPTTRTTEVRQHLESCELCADVYASLTEIQGLLGTLPAPAPMPDDVAARIDAALAAEPPLGIADGTRVSRETSTPADRPAGHARPSSTGPGRKDRRRGGRRRIAVLGAVAAAAAIGIGSVVVSSLTEDSSSGNTAREQQTAIADTFSEGRLKDRVTNLVADGSAENGSRTPRSFGMESENGGETAENHVFKQPTVPECIRKGIGRDDAVIATEPGVYKGREALLVVLPDATNDTQVTAYIVETACVDQPAVGKAKILLEHSYARS
Take B9: the fold repression with ECF31_34 was 1.67; in the assay with ECF17_1458, 2.47; with ECF27_1331, 3.78; with ECF35_3582, 1.97; in the assay with ECF25_1643, 1.63 and 1.17; with ECF20_992, 15.2. The molecule further registered a fold repression with ECF11_3726 of 7.03.

B10: AS30_35 (protein)
chain: MDKRLQQLREEYKNVQIPKELDIIVEKALQQEPKKKRIVMWPTSAAIAAAILFTALVNINPDAAQAMSKIPVIGKIVKAITFIEIKEEKDQSSIDVKTPALSGLSNKELENSINEKYLKESQQLYKEFIQSTSKNKKGHLSIYSDYETVTDTPDLLSIRRNIETTQASSYTQSRYITIDKKNDILLTLKSLFKDERYIKVISQNIKEQMKQQMKEDPNKIYWLTDEDAEPFKTILPDQTFYITEDHKLVISFDEYEVAPGYMGVTEFTIPTGVISNLLVGERYIR
In the case of B10, the fold repression in the assay with ECF31_34 was 2.22; with ECF17_1458, 1.52; in the assay with ECF27_1331, 2.39; in the assay with ECF35_3582, 6.57; with ECF25_1643 it was 1.46 and 1.19; with ECF20_992 it was 2.34. The molecule also gave a fold repression with ECF11_3726 of 2.09.
